# Measured values reported in article PMC6165545.
# Molecular target: growth hormone secretagogue receptor-type 1a tagged with enhanced green fluorescent protein (GHSR-1a-EGFP), stably expressed in HEK293A cells (UniProt Q92847)
# Sequence of UniProt Q92847 (Q92847 whole entry): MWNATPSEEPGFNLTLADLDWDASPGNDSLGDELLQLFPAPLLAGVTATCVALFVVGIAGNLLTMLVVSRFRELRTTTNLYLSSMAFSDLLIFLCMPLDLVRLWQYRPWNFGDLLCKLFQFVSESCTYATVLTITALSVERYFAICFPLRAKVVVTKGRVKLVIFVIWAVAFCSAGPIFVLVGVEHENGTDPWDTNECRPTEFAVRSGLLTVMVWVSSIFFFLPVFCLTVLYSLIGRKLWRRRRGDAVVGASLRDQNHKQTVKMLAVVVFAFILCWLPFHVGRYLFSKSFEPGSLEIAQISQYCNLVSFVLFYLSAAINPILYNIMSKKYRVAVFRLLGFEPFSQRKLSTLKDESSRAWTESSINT
substance,measurement,value
ghrelin (rat) (peptide),"intracellular Ca2+ mobilisation in HEK293A cells stably expressing GHSR-1a-EGFP, Emax as percentage of the control (3.3% FBS)",132%
casein-derived hydrolysate (CasHyd),"intracellular Ca2+ mobilisation in HEK293A cells stably expressing GHSR-1a-EGFP, EC50",270 µg/mL
same,"intracellular Ca2+ mobilisation in HEK293A cells stably expressing GHSR-1a-EGFP, Emax as percentage of the control (3.3% FBS)",149%
